Data published in patent US20100178280.

T1: acetylated p53 peptides (p53-382/diAc), P04637
T1 chain: RHKK


Target: T1, acetylated p53 peptides (p53-382/diAc), …

Protein | deacetylation of acetylated p53 peptides in vitro (fluorometric deacetylation assay) | deacetylation of p53 peptides in vitro (fluorometric deacetylation assay)
recombinant mouse Sirt7 protein (protein) MAAGGGLSRSERKAAERVRRLREEQQRERLRQVSRILRKAAAERSAEEGRLLAESEDLVTELQGRSRRREGLKRRQEEVCDDPEELRRKVRELAGAVRSARHLVVYTGAGISTAASIPDYRGPNGVWTLLQKGRPVSAADLSEAEPTLTHMSITRLHEQKLVQHVVSQNCDGLHLRSGLPRTAISELHGNMYIEVCTSCIPNREYVRVFDVTERTALHRHLTGRTCHKCGTQLRDTIVHFGERGTLGQPLNWEAATEAASKADTILCLGSSLKVLKKYPRLWCMTKPPSRRPKLYIVNLQWTPKDDWAALKLHGKCDDVMQLLMNELGLEIPVYNRWQDPIFSLATPLRAGEEGSHSRKSLCRSREEAPPGDQSDPLASAPPILGGWFGRGCAKRAKRKKVA | p53 acetylated peptides were efficiently deacetylated by Sirt7 in vitro | Sirt7 and Sirt1 deacetylate p53 peptides in vitro
recombinant mouse Sirt1 protein (protein) MADEVALALQAAGSPSAAAAMEAASQPADEPLRKRPRRDGPGLGRSPGEPSAAVAPAAAGCEAASAAAPAALWREAAGAAASAEREAPATAVAGDGDNGSGLRREPRAADDFDDDEGEEEDEAAAAAAAAAIGYRDNLLLTDGLLTNGFHSCESDDDDRTSHASSSDWTPRPRIGPYTFVQQHLMIGTDPRTILKDLLPETIPPPELDDMTLWQIVINILSEPPKRKKRKDINTIEDAVKLLQECKKIIVLTGAGVSVSCGIPDFRSRDGIYARLAVDFPDLPDPQAMFDIEYFRKDPRPFFKFAKEIYPGQFQPSLCHKFIALSDKEGKLLRNYTQNIDTLEQVAGIQRILQCHGSFATASCLICKYKVDCEAVRGDIFNQVVPRCPRCPADEPLAIMKPEIVFFGENLPEQFHRAMKYDKDEVDLLIVIGSSLKVRPVALIPSSIPHEVPQILINREPLPHLHFDVELLGDCDVIINELCHRLGGEYAKLCCNPVKLSEITEKPPRPQKELVHLSELPPTPLHISEDSSSPERTVPQDSSVIATLVDQATNNNVNDLEVSESSCVEEKPQEVQTSRNVENINVENPDFKAVGSSTADKNERTSVAETVRKCWPNRLAKEQISKRLEGNQYLFVPPNRYIFHGAEVYSDSEDDVLSSSSCGSNSDSGTCQSPSLEEPLEDESEIEEFYNGLEDDTERPECAGGSGFGADGGDQEVVNEAIATRQELTDVNYPSDKS |  | Sirt7 and Sirt1 deacetylate p53 peptides in vitro
